From patent publication US20230257454A1 (STAIDSON BEIJING BIOPHARMACEUTICALS, published 2023)
Residue numbers refer to the chain shown, from its start.

Legend:
Assay in all cases: ELISA on the coated C5a protein, antibody titrated, OD410
C5a-T1A = target: T1, C5a-T1A
T1 single chain: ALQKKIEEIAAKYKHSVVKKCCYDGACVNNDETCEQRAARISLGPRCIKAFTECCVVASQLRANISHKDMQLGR

C5a-L2A = target: T2, C5a-L2A
T2 single chain: T1 single chain with A1T, L2A

C5a-Q3A = target: T3, C5a-Q3A
T3 single chain: T1 single chain with A1T, Q3A

C5a-K4A = target: T4, C5a-K4A
T4 single chain: T1 single chain with A1T, K4A

C5a-K5A = target: T5, C5a-K5A
T5 single chain: T1 single chain with A1T, K5A

C5a-E7A = target: T6, C5a-E7A
T6 single chain: T1 single chain with A1T, E7A

C5a-E8A = target: T7, C5a-E8A
T7 single chain: T1 single chain with A1T, E8A

C5a-K12A = target: T8, C5a-K12A
T8 single chain: T1 single chain with A1T, K12A

C5a-K20A = target: T9, C5a-K20A
T9 single chain: T1 single chain with A1T, K20A

C5a-Y23A = target: T10, C5a-Y23A
T10 single chain: T1 single chain with A1T, Y23A

C5a-C27A = target: T11, C5a-C27A
T11 single chain: T1 single chain with A1T, C27A

C5a-V28A = target: T12, C5a-V28A
T12 single chain: T1 single chain with A1T, V28A

C5a-V28F = target: T13, C5a-V28F
T13 single chain: T1 single chain with A1T, V28F

C5a-V28R = target: T14, C5a-V28R
T14 single chain: T1 single chain with A1T, V28R

C5a-N29A = target: T15, C5a-N29A
T15 single chain: T1 single chain with A1T, N29A

C5a-Y13A = target: T16, C5a-Y13A
T16 single chain: T1 single chain with A1T, Y13A

C5a-A63R = target: T17, C5a-A63R
T17 single chain: T1 single chain with A1T, A63R

C5a-S66A = target: T18, C5a-S66A
T18 single chain: T1 single chain with A1T, S66A

C5a-H67A = target: T19, C5a-H67A
T19 single chain: T1 single chain with A1T, H67A

C5a-Q71A = target: T20, C5a-Q71A
T20 single chain: T1 single chain with A1T, Q71A

C5a-L72A = target: T21, C5a-L72A
T21 single chain: T1 single chain with A1T, L72A

Measured: binding result

B1: Cab42-IgG1 (antibody, V domains shown)
VH: EMQLVESGGGLVQPGGSLRLSCAASGFTFSDYYMQWVRQAPGKGPEWVGLIRNKAVGETTQYAASVKGRFTISRDDSKNSVYLQMNSLKTEDTAVYYCVSRAGPPGLSWGQGVLVTVSS
VL: DIVMTQSPLSLPVTPGEPASISCRSSQSLLASDAYNYIDWYLQKPGQSPQLLIYGGSNRASGVPDRFSGSGSGTDFTLKISRVEAEDVGVYFCLQHRALPPTFGQGTKLEIK
notes: Full-length human IgG1; It was biotinylated in the peptide-Fc ELISA
binds: all assays above
